This series has as its target T1, GST-FOXL2-FHD (UniProt O88470 48-144).
T1 sequence: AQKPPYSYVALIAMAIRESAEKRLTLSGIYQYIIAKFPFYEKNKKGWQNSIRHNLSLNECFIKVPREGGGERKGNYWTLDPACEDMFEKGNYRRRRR
The series can be described thus: EMSA.

B1: Enh 3 wt (SBE/FBE1&2) (dsDNA)
DNA 1: GCCTTGATGTGTCTGGCTCAGAGCTGGCTAGAAGGCCAAGGCTATATGC
DNA 2: GCATATAGCCTTGGCCTTCTAGCCAGCTCTGAGCCAGACACATCAAGGC
B1: the binding result was “no binding”.

Values taken from paper PMC12667839.
